Test results as given in a protein production outcome set (Wang et al. 2014).

Experiment: label from the status in PepcDB records
With “MSYILIVTIAIVIFSLIFDFINGFHDTANAVATAVSTRALTPRRAILLAAVMNFIGALTFTGVAGTITKDIVDPFKLQHGLVVVLAAIIAAIIWNLITWLYGIPSSSSHALIGSIAGAAIASKGSFAVLHYQGFTKIIIVLIISPIIAFCVGYMMYTIVKIVFKNSNLTRTNRNFRFFQIFTAALQSFSHGTNDAQKSMGIITLALIVGNLQDGSNVEPQVWVKVVCATAMGLGTAVGGWKIIKTVGGNIMKIRPANGAAADISSALTIFVASSLHFPLSTTHVVSSSILGVGASNRAKGVKWSTAQRMVVTWVITLPISAVLAAIIYFIIHLFLK” the protein production was “failed”. In the case of “MSYLSQAPLYSSIPRKNCPIAWEGQFTRGDKGTSTISFEAVASHDLWIWHTFFGCASTLNDINFLDRSPVFDDIEQGNTPRVNFFVYQRQYNMAYYLADGIYPSYPTFVKSIRLPQSEPDKLFVQLQEGCRKDIERAFGVLHARFKIIWNIADLAIIMRSCIILHNMIVENERDTYAQHWTDYDQSKESGSSTPQPFSTEVLHAFANHVHARSKLRDSICTS”, the protein production is reported as “not failed”. In the case of “MSYLVVTIKVILITGMPGSGKSEFAKLLKERGAKVIVMSDVVRKRYSIEAKPGERLMDFAKRLREIYGDGVVARLCVEELGTSNHDLVVFDGVRSLAEVEEFKRLLGDSVYIVAVHSPPKIRYKRMIERLRSDDSKEISELIRRDREELKLGIGEVIAMADYIITNDSNYEEFKRRCEEVTDRVLKNG”, the protein production is reported as “failed”. With “MSYQNANYSAFYVSEPFSESNLGANSTHDFVYYNMLRMWKGEDNSFPFNDAHDKTYNVRDGSDWEKTLKPRLHTRLDNSKNIILFLSSITANSRALREEMNYGIGTKGLPVIVIYPDYDKKSDIVDSNGNFKKQIKDLWDKLPAFRDNMSSVATLHIPCTKSVIISALNNEDFMVNTMADAEKYYYKP” the protein production was “not failed”. In the case of “MSYQPTSLTVASYNLRNANGSDSARGDGWGQRYPVIAQMVQYHDFDIFGTQECFLHQLKDMKEALPGYDYIGVGRDDGKDKGEHSAIFYRTDKFDIVEKGDFWLSETPDVPSKGWDAVLPRICSWGHFKCKDTGFEFLFFNLHMDHIGKKARVESAFLVQEKMKELGRGKNLPAILTGDFNVDQTHQSYDAFVSKGVLCDSYEKCDYRYALNGTFNNFDPNSFTESRIDHIFVSPSFHVKRYGVLTDTYRSVRENSKKEDVRDCPEEITIKAYEARTPSDHFPVKVELVFDLEHHHHHH”, the protein production is reported as “not failed”. In the case of “MSYQTWWSRVQVVDPEQLLDAVEEWDRPLVALTTPGTLARGLSLQVFRRIAPDEKNLLIIPHFCISGTIEKRLLEEGCCDENKITNENESIRIRCKTMNLHFGFHADTRDLLLFFSQWKPSCIVLVHGEGEKMDYLARVVQEEWGIQCWVPKEEQWITWKPNLTKSQ”, the protein production is reported as “failed”. For “MSYSEIAACLAYAVSVWLAARNNVHTWWIGIIGSILYGWVFWSVQLYADVTLQLFFIATSITGWIHWLKGQGGDILPVRRTQASHFFLLLLCAVVVAGGYGFLLHTFTNAWAPWLDSLILTFSVLAQFMLMGRRIENWFVWLAVNTLAVPLYMTRGLNLTAGLYFLFWINAWHGLYQWRKELQTS”, the protein production was “failed”. In the case of “MSYSVTLTGPGPWGFRLQGGKDFNMPLTISRITPGSKAAQSQLSQGDLVVAIDGVNTDTMTHLEAQNKIKSASYNLSLTLQKSKRPIPISTTAPPIQSPLPVIPHQKVVANSPANADYQERFNPSVLKDSALSTHKPIEVKGLGGKATIIHAQYNTPISMYSQDAIMDAIAGQAQAQGSDFSGASPLASLPVKDLAVDSASPVYQAVIKTQSKPEDEADEWARRSSNLQSRSFRILAQMTGTEYMQDPDEEALRRSSTPIEHAPVCTSQATSPLLPASAPSPAAASPIAASPTLATAAAAHAVAASAAGPASSPVENPRPQASAYSPAAATSPAPAAHTSYSEGPAAPAPKPRVVTTASIRPSVYQPVPASPYSPSPGANYSPTPYTPSPAPAYTPSPAPTYTPSPAPTYSPSPAPAYTPSPAPNYNPTPSAAYSGGPSESASRPPWVTDDSFSQKFAPGKSTTSVSKQTLPRGAPAYNPTGPQVTPLARGTFQRAERFPASSRTPLCGHCNNVIRGPFLVAMGRSWHPEEFNCAYCKTSLADVCFVEEQNNVYCERCYEQFFAPICAKCNTKIMGEVMHALRQTWHTTCFICAACKKPFGNSLFHMEDGEPYCEKDYINLFSTKCHGCDFPVEAGDKFIEALGHTWHDTCFICAVCHVNLEGQPFYSKKDKPLCKKHAHAINV”, the protein production is reported as “failed”. In the case of “MTAADPGTRIVRWALVAGAVAGLLAVMAGAFGAHGLRHVVSERGLEVFQTAVSYQMYHALALVAVSLMPALGLSGNLLTLACGFWLAGMMLFSGSLYLLVLTGIHWLGPVTPVGGVCFMVGWVLLIVAALKK”, the protein production is reported as “failed”. For “MTAAPGTSMATPHVAGIAALLLQAHPSWTPDKVKTALIETADIVKPDEIADIAYGAGRVNAYKAINYDNYAKLVFTGYVANKGSQTHQFVISGASFVTATLYWDNANSDLDLYLYDPNGNQVDYSYTAYYGFEKVGYYNPTDGTWTIKVVSYSGSANYQVDVVSDGSLSQLEHHHHHH”, the protein production was “not failed”. For “MTAETPSLTSPQAQRILRLYHLYRLTIGVVLVLLISSSLETELLQLANPNLFRSGCWLYLVFNILVVVLLERPSRQAQLFGLAMTDAIMLSGLFYAAGGPSSGIGNLLIASVAISNVLLRGRIGLLIAAVSAIGIIYLTFYISFGTPSVSNDYVQAGSLGALCFAAALLVQALTARLQVSEGLAEQRAADVDSLEELNALILQRMRTGIVVLDARRQVVLANQGALTLLGHERLVGQVIDAYSPQLVERLRQWLINPIMVPRSITTSSIGPVLQPSFAALNRGDQRQTLIFLEDLSQIAHQAQQLKLAALGRLTAGIAHEIRNPLGAVSHAAQLLNESEDLSAPDRRLGQIIHDQSQRIDRVIENVLQLSRRREAQPELLDLKVWLENFVSDFRSSAAADQSIHVQISSGMLTTRMDAGQLTQIITNLVQNGLRYSRRNHPSAQVWLNLHHDRESDLPILEVLDDGPGVSEQHLSKIFEPFFTTESKGTGLGLYLSRELCESNQAHLEYIPRPHDGGSCLRITFAHPFKTS”, the protein production was “failed”. For “MTAFYLLVPFLFIRFIFLSLLDRKATGRAAHFASMQGKEIIAYYLYQLSTLMLLIVPFFLKVSLHFSSFFYLGLGAYLLGSVLLFLVIKDFANPDEKGLNTKGLYALSRHPMYIAYFVLFLGVAMLTQSLTLLIFLAIFQLSAHFIILAEERECLIKFGAAYQEYQKRVRMYL”, the protein production was “failed”. For “MTAGWCCRTVRAALFAAVCVLLAALGHVMMSGTAVPWWAMTVAALVTGGTGWCLAGRERGLALIVSVVVVAQGALHSAFSVAQSAAHSAGSVGADSMPKGSMGSDMSSVHMDSVHMDSMDMGNMGAGHLAHLGHDMGGGSSFGMLAAHSAAALLCGLWLAYGERAAFRILRALAGRLAAPLRLLLALPTPAHRPRIRVRRGSSDRTPRRLLLVHAITSRGPPVGTAVI”, the protein production was “failed”. With “MTAIPRAPLILGLAGLIPFLWGALTYLSPAAQAWGAAALGPRFVGPYVQIAYGQIILAFMSGVLWGFATKADDRRAATGYVLAVLPALWAFFMTGGGPTGAAINLIFGFLGLLMLDAAFASWGLAPVWWMRLRLLLTAVVTICLAVGAFL” the protein production was “failed”. In the case of “MTALLTRVWACTLCQAELPFPPKPILQASSQARILIAGQAPGVKTHHKGIPFDDASGERLRAWLNVSREQFYDPALFAIVPMGFCFPGNIERKGKKQGDKPPRPECAATWHKALLALMPNIELVIVLGQYAMDYHLSRLLMDNMHKNRGFNSTPLAAAHTIGKATSNKKITLTQAVEQWPLYWPQLMVMPHPSPRNNLWLKQHPEFEQHLIPTLRSRISSLLT”, the protein production is reported as “failed”. In the case of “MTANAYVRARIDQTLKDDATAVLDRLGLTVSDVMRMMLTRIAREKALPIELTQPNAETLAAIEEARAIAAAGRNRFGTSEALFEALDAGKRLEHHHHHH”, the protein production is reported as “not failed”. For “MTAPASSLDRFFGLRARGTTVRREILAGTTTFMTMAYILFVNPEILGSAAGAGHFAAILTSTALVAAVMTAAMGLFANLPLALASGMGLNAVVAFGLVLGKKLTYPQAMGVIVAEGVLITLLVATGLRQAVVRAVPMTLKRAIGIGIGLFLAIIGFKAAGFISAGGALLQLGPEGAAGRLTGFPVVLFALTLVFTAWLVSRGVRGALLIGIAVSTAVAVTAKAAFGGAGFAPHVANLPSSIFGLPDFSMLGQVDFSFVAVLGPLAASLAVFSIMLSDFFDTVGTVVAVGQEAKYLDEQGNFPRASTVLMVDSLAAIAGGLAGASSATTYVESAAGAASGGRTGLTSVTTAALFALCLFISPLAGIVPPQATGAVLVLVGYMMMRDVGAIAWDDPSESIPAFLTVTVMPFTYSITNGIGAGFVSYVLLKLAGGKAREVHPLMIGASVAFVVYFAIGG”, the protein production was “failed”. For “MTAPDRSPPRYKSDLIYGLNDRPHFSAAIFAALQHVLASFVGIISPTLIFGGVLGLESELPYLISMALFVSGLGTFVQARRLGPIGSGLLCVQGTSFSFISVLLSAGFMVKGRGGDTNEILSTIFGICFVAAFIEMFLSQFIGKLRKLITPVVTGTIITLMGLSLIKVAVTDMAGGYGASDLGAASNLGLAALVLLTIVVLNRFNHPMLRLGSIVIGLTLGFVVAWMLGRVDMAAMPEVPLVSVPVPFKYGFSFDLIAFIPLAVIFLISPLEAAGDLTANSMISQQPVKGPLYIKRIKSGLLADGFNSAVAAVFNSLPMVTFAQNNGVIQLTGVASRYVAYFIAGLLVLLGLFPVIGAVLQLMPKPVLGGATLIMFGTVAVAGIKILAEAGLHRRNVLIVAISLGMGLGVAAVPEVLRELPKALHNIFESPITVGAFCAIFLNIFLPEEFLELEEDEFDPEAATLKVMQDPDMSGKANS”, the protein production was “failed”. With “MTAQLISPTIHGILDYLLGAVLVVAPSVLGLPTGPAVIAYAVGGAHLAMSLLTGYAPGALRVIPFWAHGAVEAAGWAGLLVFLGLLTAPADGLFLASGVGILVVSALTDYGVETDGVRLRARRHAHARP” the protein production was “failed”. In the case of “MTAQPLLVFDFDGVIVDGMAEYWWSAWMAAQRLNAEPQGLGSDAVPQGFRRLRPWVHHGWEMVLLAAEMPQLDPERWVVDYATEQDMALQRRGWSASLLQEALDQTRQQAVSSDRAAWLGLHQPFPGLVDRLQAFQEEGVDWAVLTTKTAAFTAELLESLGLRPWRLDGREAGPKPEVLLRLQRERVLAGFVEDRRATLETVRDTDGLQSLPCWLASWGYLKPSDREDLPRGIQLIDQDRLATPLAQWP”, the protein production is reported as “failed”. In the case of “MTASLEIRPFQETDLDFVRQLARQEDFAPGIGDIAIYANTANQGVWLAWQGDMPVGCIAAVKYNLDYGFMGLFVVHPDHRGGGVGRQLWDHALALLADVTCIGLEAAPSMVEFYQRQGFRKDSITTRRQHLRLEESSQHPTRRLLHRNDITIVPLKAISLDAVQAYDERHEISPRPHFLQQWLNHQAGDVFVAMDGSHQCHGYVRIRPCLLPIGQGWRIGPLLAEEPGIASLLLSNAMDRHKGIILIDTPGHNRSARTVAGAKGFRRMGATHRMYKGDLDNGHDQNIYGLACLELG”, the protein production is reported as “failed”. With “MTASSKRTKKQAILETALQLFVSQGFHGTSTATIAREAGVATGTLFHHFPSKEQLLEQLFLGVKQEFADAIQASVSSRGDLKQDAEQLWFAALTWAMANPLKQAFFQLYSMSPTVEQSVRDQAMHGILGFIAELIRQGQASGELAEYPIELMQDNCHGQYLAATRYFVDHPERWQQAHERSASFALFWNAMAVR” the protein production was “not failed”. For “MTATASTVLPARALLLDMDGTLVNSDAAVDRVWRRWADRHGLDGDEVMKVVHGRQGYASMALLLPDRPMEHNHADNARMLAEETADTEGVVAIPGAAEFLASLRGLPHALVTSADVALSTARMAAAGLAQPDVRVTAESVGASKPDPEGFLKGAAELGIAPADCVVFEDSGAGIAAGRAAGMRVVGVGPRAGFHGPDVVVEDLTRVRVEADADGGLRLHIG”, the protein production was “failed”. In the case of “MTATEPTEKILPSPDYVQSLARGLAVIRCFDHRNQRRTLSDVARATDLTRATARRFLLTLVELGYVATDGSAFWLTPRVLELGYSYLSSLSLPEVAQPHLEKLSHKVHESSSVSILDGADIVYVARVPVSRIMTVGITIGTRLPAYATSMGRVLLAGLPDDELDAYLEKLDIQRLTERTITARDELKAAILAVRADGICVLDQELEAGLRSMAAPIRGASGLTVAAVNISTPAARYSLEDLHSDLIPSLRVTATDIEQDLATVNR”, the protein production is reported as “not failed”.
